Test results reported in patent publication US20240368250A1 (Ablynx, published 2024).
Residue numbers refer to the chain shown, from its start. Names and notes keep the numbering of the source.

B1: TPP-66144 (Fc fusion)
chain 1: DVQLVESGGGVVQAGGSLSISCAASGGSLSNYVLGWFRQAPGKEREFVAAINWRGDITIGPPNVEGRFTISRDNAKNTGYLQMNSLAPDDTALYYCGAGTPLNPGAYIYDWSYDYWGRGTLVTVSSDKTHTCPPCPAPEAAGGPSVFLFPPKPKDTLMISRTPEVTCVVVDVSQEDPEVQFNWYVDGVEVHNAKTKPREEQFNSTYRVVSVLTVLHQDWLNGKEYKCKVSNKGLPSSIEKTISKAKGQPREPQVYTLPPCQEEMTKNQVSLWCLVKGFYPSDIAVEWESNGQPENNYKTTPPVLDSDGSFFLYSKLTVDKSRWQEGNVFSCSVMHEALHNHYTQKSLSLSLGGGGGSGGGSEVQLVESGGGVVQPGGSLRLSCAASGFTFRSFGMSWVRQAPGKGPEWVSSISGSGSDTLYADSVKGRFTISRDNSKNTLYLQMNSLRPEDTALYYCTIGGSLSRSSQGTLVTVSSA
chain 2: DVQLVESGGGVVQAGGSLSISCAASGGSLSNYVLGWFRQAPGKEREFVAAINWRGDITIGPPNVEGRFTISRDNAKNTGYLQMNSLAPDDTALYYCGAGTPLNPGAYIYDWSYDYWGRGTLVTVSSDKTHTCPPCPAPEAAGGPSVFLFPPKPKDTLMISRTPEVTCVVVDVSQEDPEVQFNWYVDGVEVHNAKTKPREEQFNSTYRVVSVLTVLHQDWLNGKEYKCKVSNKGLPSSIEKTISKAKGQPREPQVCTLPPSQEEMTKNQVSLSCAVKGFYPSDIAVEWESNGQPENNYKTTPPVLDSDGSFFLVSKLTVDKSRWQEGNVFSCSVMHEALHNRFTQKSLSLSLG
notes: IgG4 FALA Fc knob-in-hole, C-terminal ALB23002 via 9GS linker
B2: TPP-66149 (Fc fusion)
chain 1: DVQLVESGGGVVQAGGSLSISCAASGGSLSNYVLGWFRQAPGKEREFVAAINWRGDITIGPPNVEGRFTISRDNAKNTGYLQMNSLAPDDTALYYCGAGTPLNPGAYIYDWSYDYWGRGTLVTVSSDKTHTCPPCPAPEAAGGPSVFLFPPKPKDTLMISRTPEVTCVVVDVSQEDPEVQFNWYVDGVEVHNAKTKPREEQFNSTYRVVSVLTVLHQDWLNGKEYKCKVSNKGLPSSIEKTISKAKGQPREPQVYTLPPCQEEMTKNQVSLWCLVKGFYPSDIAVEWESNGQPENNYKTTPPVLDSDGSFFLYSKLTVDKSRWQEGNVFSCSVMHEALHNHYTQKSLSLSLGGGGGSGGGGSGGGGSGGGGSGGGGSGGGGSGGGGSEVQLVESGGGVVQPGDSLRLSCAASGGTFSTYVMGWFRQAPGKEREFVSAISQNSIHTYYANSVKGRFTISRDNSKNTVYLQLNSLRPEDTALYYCAASRFTSWYTADYEYDYWGQGTLVTVSSA
chain 2: B1 chain 2
notes: IgG4 FALA Fc knob-in-hole, C-terminal T023500029 via 35GS
B3: TPP-66148 (Fc fusion)
chain 1: DVQLVESGGGVVQAGGSLSISCAASGGSLSNYVLGWFRQAPGKEREFVAAINWRGDITIGPPNVEGRFTISRDNAKNTGYLQMNSLAPDDTALYYCGAGTPLNPGAYIYDWSYDYWGRGTLVTVSSDKTHTCPPCPAPEAAGGPSVFLFPPKPKDTLMISRTPEVTCVVVDVSQEDPEVQFNWYVDGVEVHNAKTKPREEQFNSTYRVVSVLTVLHQDWLNGKEYKCKVSNKGLPSSIEKTISKAKGQPREPQVYTLPPCQEEMTKNQVSLWCLVKGFYPSDIAVEWESNGQPENNYKTTPPVLDSDGSFFLYSKLTVDKSRWQEGNVFSCSVMHEALHNHYTQKSLSLSLGGGGGSGGGGSGGGGSGGGGSGGGGSGGGGSGGGGSEVQLVESGGGVVQPGGSLRLSCAASGLTFSSYAMGWFRQAPGKERERVVSISRGGGYTYYADSVKGRFTISRDNSKNTVYLQMNSLRPEDTALYYCAAARYWATGSEYEFDYWGQGTLVTVSSA
chain 2: B1 chain 2
notes: IgG4 FALA Fc knob-in-hole, C-terminal ALBX00002 via 35GS
B4: TPP-66151 (Fc fusion)
chain 1: B1 chain 2 with C255Y, S260C, S272W, A274L, V313Y, R341H, F342Y
chain 2: DVQLVESGGGVVQAGGSLSISCAASGGSLSNYVLGWFRQAPGKEREFVAAINWRGDITIGPPNVEGRFTISRDNAKNTGYLQMNSLAPDDTALYYCGAGTPLNPGAYIYDWSYDYWGRGTLVTVSSDKTHTCPPCPAPEAAGGPSVFLFPPKPKDTLMISRTPEVTCVVVDVSQEDPEVQFNWYVDGVEVHNAKTKPREEQFNSTYRVVSVLTVLHQDWLNGKEYKCKVSNKGLPSSIEKTISKAKGQPREPQVCTLPPSQEEMTKNQVSLSCAVKGFYPSDIAVEWESNGQPENNYKTTPPVLDSDGSFFLVSKLTVDKSRWQEGNVFSCSVMHEALHNRFTQKSLSLSLGGGGGSGGGGSGGGGSGGGGSGGGGSGGGGSGGGGSVKVKFWPRGEEKVVDTSKIAWVLRADKTVMFKYDDNGKKGYGVVLEKDAPKELLDMLARAEREK
B5: TPP-66147 (Fc fusion)
chain 1: DVQLVESGGGVVQAGGSLSISCAASGGSLSNYVLGWFRQAPGKEREFVAAINWRGDITIGPPNVEGRFTISRDNAKNTGYLQMNSLAPDDTALYYCGAGTPLNPGAYIYDWSYDYWGRGTLVTVSSDKTHTCPPCPAPEAAGGPSVFLFPPKPKDTLMISRTPEVTCVVVDVSQEDPEVQFNWYVDGVEVHNAKTKPREEQFNSTYRVVSVLTVLHQDWLNGKEYKCKVSNKGLPSSIEKTISKAKGQPREPQVYTLPPCQEEMTKNQVSLWCLVKGFYPSDIAVEWESNGQPENNYKTTPPVLDSDGSFFLYSKLTVDKSRWQEGNVFSCSVMHEALHNHYTQKSLSLSLGGGGGSGGGGSGGGGSGGGGSGGGGSGGGGSGGGGSEVQLVESGGGVVQPGGSLRLSCAASGFTFRSFGMSWVRQAPGKGPEWVSSISGSGSDTLYADSVKGRFTISRDNSKNTLYLQMNSLRPEDTALYYCTIGGSLSRSSQGTLVTVSSA
chain 2: B1 chain 2
notes: IgG4 FALA Fc knob-in-hole, C-terminal ALB23002 via 35GS
B6: TPP-66174 (Fc fusion)
chain 1: B5 chain 1 with M158Y, S160T, T162E
chain 2: B1 chain 2 with M158Y, S160T, T162E
notes: IgG4 FALA Fc (YTE) knob-in-hole, C-terminal ALB23002 via 35GS; also called ALB23002 ISVD-Fc(YTE) polypeptide
B7: T-0263-00_TP117 (antibody, human IgG1, kappa)
heavy 1: not shown
heavy 2: EVQLVESGGGLVQPGGSLRLSCAASGFNIRDTYIHWVRQAPGKGLEWVARIYPTQGYTRYADSVKGRFTISADTSKNTAYLQMNSLRAEDTAVYYCSRWGGEGFYAMDYWGQGTLVTVSSASTKGPSVFPLAPSSKSTSGGTAALGCLVKDYFPEPVTVSWNSGALTSGVHTFPAVLQSSGLYSLSSVVTVPSSSLGTQTYICNVNHKPSNTKVDKKVEPKSCDKTHTCPPCPAPELLGGPSVFLFPPKPKDTLMISRTPEVTCVVVDVSHEDPEVKFNWYVDGVEVHNAKTKPREEQYNSTYRVVSVLTVLHQDWLNGKEYKCKVSNKALPAPIEKTISKAKGQPREPQVCTLPPSRDELTKNQVSLSCAVKGFYPSDIAVEWESNGQPENNYKTTPPVLDSDGSFFLVSKLTVDKSRWQQGNVFSCSVMHEALHNRFTQKSLSLSPG
light: not shown
notes: Full-length IgG1 with knob-in-hole mutations (hole chain H435R, Y436F), no C-terminal fusion
B8: T-0263-00_TP118 (antibody, human IgG1, kappa)
heavy 1: not shown
heavy 2: B7 heavy 2
light: not shown
notes: Full-length IgG1 knob-in-hole with a C-terminal irrelevant ISVD (9GS) on chain 1; control of TP121

Experiments:
[1] = biological target: T1, Human FcRn (biotinylated human FcRn) (human, UniProt P61769 21-119); assay: SPR Biacore 8K+, biotinylated hFcRn on SA chip (~500-600 RU), pH 6.0, bivalent analyte fit (ka1)
T1 construct: Biotinylated human FcRn captured on a Series S Sensor Chip SA; also called human neonatal Fc receptor; hFcRn

[2] = biological target: T1, Human FcRn (biotinylated human FcRn); assay: SPR Biacore 8K+, biotinylated hFcRn on SA chip (~500-600 RU), pH 6.0, bivalent analyte fit;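 also: analytes were Fc proteins binding to biotinylated human FcRn captured on a Series S streptavidin sensor chip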
[3] = biological target: Human serum albumin (HSA; Sigma-Aldrich Cat No. A8763) (human, UniProt P02768 25-609); assay: SPR Biacore 8K+, HSA on C1 chip, pH 7.4, 1:1 fit
[4] = biological target: T1, Human FcRn (biotinylated human FcRn); assay: SPR Biacore 8K+, biotinylated hFcRn on SA chip (~500-600 RU), pH 6.0, bivalent analyte fit (KD1)
[5] = biological target: T1, Human FcRn (biotinylated human FcRn); assay: SPR Biacore 8K+, biotinylated hFcRn on SA chip (~500-600 RU), pH 6.0, bivalent analyte fit (kd1)
[6] = biological target: Mouse serum albumin (MSA; Albumin Bioscience Cat No. 2601) (mouse, UniProt P07724 25-608); assay: SPR Biacore 8K+, MSA on C1 chip, pH 7.4, 1:1 fit (off-rate only)
[7] = biological target: T1, Human FcRn (biotinylated human FcRn); assay: SPR Biacore 8K+, biotinylated hFcRn on SA chip (~700 RU), pH 6.0, bivalent analyte fit (ka1)
[8] = biological target: T1, Human FcRn (biotinylated human FcRn); assay: SPR Biacore 8K+, biotinylated hFcRn on SA chip (~700 RU), pH 6.0, bivalent analyte fit (kd1)
[9] = biological target: T1, Human FcRn (biotinylated human FcRn); assay: SPR Biacore 8K+, biotinylated hFcRn on SA chip (~700 RU), pH 6.0, bivalent analyte fit (KD1)
[10] = biological target: T1, Human FcRn (biotinylated human FcRn); assay: SPR Biacore 8K+, biotinylated hFcRn on SA chip (~700 RU), pH 6.0, bivalent analyte fit

Row | Binder | kon [1] | KD2 [2] | ka2 [2] | kd2 [2] | Kd [3] | koff [3] | kon [3] | Kd [4] | koff [5] | koff [6] | kon [7] | koff [8] | Kd [9] | ka2 [10] | kd2 [10]
1 | B1 | 808000 M⁻¹ s⁻¹ | 2.86 M | 0.017 1/RUs | 0.0485 s⁻¹ | 51.6 nM | 0.00124 s⁻¹ | 24000 M⁻¹ s⁻¹ | 103 nM | 0.0834 s⁻¹ | 0.0842 s⁻¹ | – | – | – | – | –
2 | B2 | 87000 M⁻¹ s⁻¹ | 3.39 M | 4.37e-05 1/RUs | 0.000148 s⁻¹ | 8.2 nM | 0.000511 s⁻¹ | 62300 M⁻¹ s⁻¹ | 1200 nM | 0.104 s⁻¹ | 0.000503 s⁻¹ | – | – | – | – | –
3 | B3 | 107000 M⁻¹ s⁻¹ | 2.14 M | 3.33e-05 1/RUs | 7.12e-05 s⁻¹ | 5.1 nM | 0.000247 s⁻¹ | 48500 M⁻¹ s⁻¹ | 1030 nM | 0.11 s⁻¹ | 0.00187 s⁻¹ | – | – | – | – | –
4 | B4 | 102000 M⁻¹ s⁻¹ | 2.08 M | 6.98e-05 1/RUs | 0.000145 s⁻¹ | 2.61 nM | 0.00031 s⁻¹ | 119000 M⁻¹ s⁻¹ | 1460 nM | 0.148 s⁻¹ | 0.00175 s⁻¹ | – | – | – | – | –
5 | B5 | 101000 M⁻¹ s⁻¹ | 3.17 M | 3.3e-05 1/RUs | 0.000105 s⁻¹ | 27.1 nM | 0.00119 s⁻¹ | 43800 M⁻¹ s⁻¹ | 1060 nM | 0.107 s⁻¹ | 0.075 s⁻¹ | – | – | – | – | –
6 | B6 | 65000 M⁻¹ s⁻¹ | 2.04 M | 55.8 1/RUs | 114 s⁻¹ | 21.5 nM | 0.00104 s⁻¹ | 48400 M⁻¹ s⁻¹ | 121 nM | 0.00786 s⁻¹ | 0.0819 s⁻¹ | – | – | – | – | –
7 | B7 | – | – | – | – | – | – | – | – | – | – | 120000 M⁻¹ s⁻¹ | 0.16 s⁻¹ | 1300 nM | 3.1e-05 1/RUs | 0.001 s⁻¹
8 | B8 | – | – | – | – | – | – | – | – | – | – | 120000 M⁻¹ s⁻¹ | 0.15 s⁻¹ | 1200 nM | 2.3e-05 1/RUs | 0.00054 s⁻¹
